Measured values from doi:10.1101/2021.10.12.462922 (bioRxiv, 2021).
Where two headings read alike, the source gives them in different places. Blank lines part the entries; values can stand above or below the binder they belong to.

Legend:
PHF14;HMG20A;TCF20 = PHF14;HMG20A;TCF20 (human;human;human, UniProt O94880;Q9NP66;Q9UGU0 1-948;1-347;1-1960, ||); assay: EMSA
PHF14;HMG20A = PHF14;HMG20A (human;human, UniProt O94880;Q9NP66 1-948;1-347, |); assay: EMSA
HMG20A [1] = molecular target: T1, HMG20A (human, UniProt Q9NP66 1-347); assay: EMSA
HMG20A [2] = molecular target: T1, HMG20A; assay: EMSA; remark: listed apart in the source
PHF14 = molecular target: T2, PHF14 (human, UniProt O94880 1-948); assay: EMSA
T2 sequence: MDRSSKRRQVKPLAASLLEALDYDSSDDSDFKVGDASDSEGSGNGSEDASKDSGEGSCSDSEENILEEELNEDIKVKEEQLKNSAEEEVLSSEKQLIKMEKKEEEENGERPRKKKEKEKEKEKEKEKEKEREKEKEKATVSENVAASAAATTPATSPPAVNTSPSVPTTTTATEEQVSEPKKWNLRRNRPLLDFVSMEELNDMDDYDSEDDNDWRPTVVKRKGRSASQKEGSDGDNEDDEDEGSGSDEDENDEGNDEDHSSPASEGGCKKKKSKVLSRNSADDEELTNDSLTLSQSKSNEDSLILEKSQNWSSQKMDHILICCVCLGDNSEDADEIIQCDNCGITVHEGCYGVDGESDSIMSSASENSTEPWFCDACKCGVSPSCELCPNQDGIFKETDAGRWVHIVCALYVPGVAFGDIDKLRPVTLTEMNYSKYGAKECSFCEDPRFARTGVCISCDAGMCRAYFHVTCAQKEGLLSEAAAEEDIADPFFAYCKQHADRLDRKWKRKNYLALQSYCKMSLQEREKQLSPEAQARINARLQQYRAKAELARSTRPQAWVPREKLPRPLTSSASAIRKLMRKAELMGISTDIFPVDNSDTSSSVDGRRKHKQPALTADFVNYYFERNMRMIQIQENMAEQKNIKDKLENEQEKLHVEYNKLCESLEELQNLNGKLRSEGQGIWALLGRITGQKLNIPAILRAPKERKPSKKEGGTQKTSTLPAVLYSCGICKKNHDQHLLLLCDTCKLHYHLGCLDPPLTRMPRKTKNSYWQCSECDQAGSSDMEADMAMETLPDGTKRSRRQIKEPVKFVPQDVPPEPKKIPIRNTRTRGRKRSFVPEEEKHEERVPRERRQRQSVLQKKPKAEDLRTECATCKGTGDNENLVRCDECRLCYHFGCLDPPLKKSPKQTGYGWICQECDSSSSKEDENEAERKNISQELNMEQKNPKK

[3] = molecular target: T3, HMG20A, human, recombinant from insect cells (human, UniProt Q9NP66 1-347); assay: native gel or EMSA
T3 sequence: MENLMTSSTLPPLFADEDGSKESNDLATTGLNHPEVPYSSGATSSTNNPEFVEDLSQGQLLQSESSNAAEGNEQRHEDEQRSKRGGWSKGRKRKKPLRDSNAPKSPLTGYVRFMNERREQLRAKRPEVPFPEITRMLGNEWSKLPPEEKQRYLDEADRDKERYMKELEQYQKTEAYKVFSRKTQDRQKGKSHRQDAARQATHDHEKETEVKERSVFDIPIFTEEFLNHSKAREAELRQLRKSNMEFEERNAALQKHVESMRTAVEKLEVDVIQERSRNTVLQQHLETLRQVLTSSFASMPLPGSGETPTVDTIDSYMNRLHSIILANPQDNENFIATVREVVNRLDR

[4] = molecular target: PHF14 (PHD finger protein 14), human, recombinant from insect cells (human) (UniProt O94880); assay: native gel or EMSA

B1: dsDNA (dsDNA)
DNA 1: CCCTATAACCCCTGCATTGAATTCCAGTCTGATAA
DNA 2: TTTATCAGACTGGAATTCAATGCAGGGGTTATAGGG
- binding result (PHF14;HMG20A;TCF20): binds
- binding result (PHF14;HMG20A): binds
- binding result (HMG20A [1]): binds

B2: 4WJ (four-way junction, Holliday junction) (structured_DNA)
DNA 1: B1 DNA 1
DNA 2: GTAGTCGTGATAGGTGCAGGGGTTATAGGG
DNA 3: AACAGTAGCTCTTATTCGAGCTCGCGCCCTATCACGACTA
DNA 4: TTTATCAGACTGGAATTCAAGCGCGAGCTCGAATAAGAGCTACTGT
- binding result (PHF14;HMG20A;TCF20): binds
- binding result (HMG20A [2]): binds
- binding result (PHF14;HMG20A): binds
- binding result (PHF14): no binding

- stoichiometry N [3]: 0.5
- stoichiometry N [4]: 0.5
B3: TCF20 (transcription factor 20), human, recombinant from insect cells (natural protein)
chain: MQSFREQSSYHGNQQSYPQEVHGSSRLEEFSPRQAQMFQNFGGTGGSSGSSGSGSGGGRRGAAAAAAAMASETSGHQGYQGFRKEAGDFYYMAGNKDPVTTGTPQPPQRRPSGPVQSYGPPQGSSFGNQYGSEGHVGQFQAQHSGLGGVSHYQQDYTGPFSPGSAQYQQQASSQQQQQQVQQLRQQLYQSHQPLPQATGQPASSSSHLQPMQRPSTLPSSAAGYQLRVGQFGQHYQSSASSSSSSSFPSPQRFSQSGQSYDGSYNVNAGSQYEGHNVGSNAQAYGTQSNYSYQPQSMKNFEQAKIPQGTQQGQQQQQPQQQQHPSQHVMQYTNAATKLPLQSQVGQYNQPEVPVRSPMQFHQNFSPISNPSPAASVVQSPSCSSTPSPLMQTGENLQCGQGSVPMGSRNRILQLMPQLSPTPSMMPSPNSHAAGFKGFGLEGVPEKRLTDPGLSSLSALSTQVANLPNTVQHMLLSDALTPQKKTSKRPSSSKKADSCTNSEGSSQPEEQLKSPMAESLDGGCSSSSEDQGERVRQLSGQSTSSDTTYKGGASEKAGSSPAQGAQNEPPRLNASPAAREEATSPGAKDMPLSSDGNPKVNEKTVGVIVSREAMTGRVEKPGGQDKGSQEDDPAATQRPPSNGGAKETSHASLPQPEPPGGGGSKGNKNGDNNSNHNGEGNGQSGHSAAGPGFTSRTEPSKSPGSLRYSYKDSFGSAVPRNVSGFPQYPTGQEKGDFTGHGERKGRNEKFPSLLQEVLQGYHHHPDRRYSRSTQEHQGMAGSLEGTTRPNVLVSQTNELASRGLLNKSIGSLLENPHWGPWERKSSSTAPEMKQINLTDYPIPRKFEIEPQSSAHEPGGSLSERRSVICDISPLRQIVRDPGAHSLGHMSADTRIGRNDRLNPTLSQSVILPGGLVSMETKLKSQSGQIKEEDFEQSKSQASFNNKKSGDHCHPPSIKHESYRGNASPGAATHDSLSDYGPQDSRPTPMRRVPGRVGGREGMRGRSPSQYHDFAEKLKMSPGRSRGPGGDPHHMNPHMTFSERANRSSLHTPFSPNSETLASAYHANTRAHAYGDPNAGLNSQLHYKRQMYQQQPEEYKDWSSGSAQGVIAAAQHRQEGPRKSPRQQQFLDRVRSPLKNDKDGMMYGPPVGTYHDPSAQEAGRCLMSSDGLPNKGMELKHGSQKLQESCWDLSRQTSPAKSSGPPGMSSQKRYGPPHETDGHGLAEATQSSKPGSVMLRLPGQEDHSSQNPLIMRRRVRSFISPIPSKRQSQDVKNSSTEDKGRLLHSSKEGADKAFNSYAHLSHSQDIKSIPKRDSSKDLPSPDSRNCPAVTLTSPAKTKILPPRKGRGLKLEAIVQKITSPNIRRSASSNSAEAGGDTVTLDDILSLKSGPPEGGSVAVQDADIEKRKGEVASDLVSPANQELHVEKPLPRSSEEWRGSVDDKVKTETHAETVTAGKEPPGAMTSTTSQKPGSNQGRPDGSLGGTAPLIFPDSKNVPPVGILAPEANPKAEEKENDTVTISPKQEGFPPKGYFPSGKKKGRPIGSVNKQKKQQQPPPPPPQPPQIPEGSADGEPKPKKQRQRRERRKPGAQPRKRKTKQAVPIVEPQEPEIKLKYATQPLDKTDAKNKSFYPYIHVVNKCELGAVCTIINAEEEEQTKLVRGRKGQRSLTPPPSSTESKALPASSFMLQGPVVTESSVMGHLVCCLCGKWASYRNMGDLFGPFYPQDYAATLPKNPPPKRATEMQSKVKVRHKSASNGSKTDTEEEEEQQQQQKEQRSLAAHPRFKRRHRSEDCGGGPRSLSRGLPCKKAATEGSSEKTVLDSKPSVPTTSEGGPELELQIPELPLDSNEFWVHEGCILWANGIYLVCGRLYGLQEALEIAREMKCSHCQEAGATLGCYNKGCSFRYHYPCAIDADCLLHEENFSVRCPKHKPPLPCPLPPLQNKTAKGSLSTEQSERG
